Earlier results in article PMC5257249.
Like-named read-outs stand apart in the source and are kept apart here.

Key:
[1] = biological target: MMOH (Methylococcus capsulatus) (UniProt P22869); test: fluorescence anisotropy
[2] = biological target: MMOH (Methylococcus capsulatus) (UniProt P22869); test: fluorescence anisotropy; remark: listed apart in the source

UniProt P22869, sequence (P22869 whole entry, chain 1 of 3): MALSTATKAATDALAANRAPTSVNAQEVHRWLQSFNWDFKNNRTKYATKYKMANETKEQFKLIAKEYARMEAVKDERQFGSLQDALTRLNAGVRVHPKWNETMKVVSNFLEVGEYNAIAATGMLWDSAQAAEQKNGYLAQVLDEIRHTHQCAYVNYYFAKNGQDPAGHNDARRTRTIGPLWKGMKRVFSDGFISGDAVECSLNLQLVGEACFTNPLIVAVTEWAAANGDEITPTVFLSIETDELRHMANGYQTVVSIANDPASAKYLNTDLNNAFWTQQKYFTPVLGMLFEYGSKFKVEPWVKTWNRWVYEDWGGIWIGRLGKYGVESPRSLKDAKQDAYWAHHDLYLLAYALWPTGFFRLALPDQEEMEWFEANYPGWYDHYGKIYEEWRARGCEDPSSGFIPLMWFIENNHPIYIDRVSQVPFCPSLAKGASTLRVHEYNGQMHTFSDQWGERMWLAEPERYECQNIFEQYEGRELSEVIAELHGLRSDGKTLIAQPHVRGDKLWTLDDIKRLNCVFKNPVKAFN
UniProt P22869, sequence (P18798 2-389, chain 2 of 3, further chain): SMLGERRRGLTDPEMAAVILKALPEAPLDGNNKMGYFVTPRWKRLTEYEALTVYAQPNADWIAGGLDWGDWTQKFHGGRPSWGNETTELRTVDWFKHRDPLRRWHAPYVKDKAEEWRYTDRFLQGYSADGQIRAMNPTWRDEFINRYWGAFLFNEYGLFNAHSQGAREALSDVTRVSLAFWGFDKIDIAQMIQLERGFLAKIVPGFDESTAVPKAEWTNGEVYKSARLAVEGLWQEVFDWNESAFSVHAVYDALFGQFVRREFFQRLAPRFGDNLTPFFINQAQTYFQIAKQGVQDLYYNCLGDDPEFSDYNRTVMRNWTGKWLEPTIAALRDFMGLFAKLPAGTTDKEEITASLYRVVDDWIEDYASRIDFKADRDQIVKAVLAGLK
UniProt P22869, sequence (P11987 2-170, chain 3 of 3, further chain): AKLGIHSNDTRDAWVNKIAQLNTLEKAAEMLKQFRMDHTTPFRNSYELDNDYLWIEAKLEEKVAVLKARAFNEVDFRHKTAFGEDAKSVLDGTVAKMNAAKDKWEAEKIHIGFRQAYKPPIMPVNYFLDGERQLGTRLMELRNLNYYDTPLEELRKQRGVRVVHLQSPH

Kd [1]: 0.55 µM | Kd [2]: 0.17 µM
Substance: MMOB (from UniProt P18797)
